According to PMC3065461, “A Transient Homotypic Interaction Model for the Influenza A Virus NS1 Protein Effector Domain” (PLoS ONE, 2011):

B1: PR8 NS1 effector domain (ED), wild type, residues 73-230 (domain or fragment)
chain: SDEALKMTMASVPASRYLTDMTLEEMSRDWSMLIPKQKVAGPLCIRMDQAIMDKNIILKANFSVIFDRLETLILLRAFTEEGAIVGEISPLPSLPGHTAEDVKNAVGVLIGGLEWNDNTVRVSETLQRFAWRSSNENGRPPLTPKQKREMAGTIRSEV
notes: also called PR8 ED; PR8 NS1 ED
B2: Alb/76 NS1 effector domain (ED), residues 73-230 (domain or fragment)
chain: TDENLKIAIASSPAPRYITDMSIEEISREWYMLMPRQKITGGLMVKMDQAIMDKRITLKANFSVLFDQLETLVSLRAFTDDGAIVAEISPIPSMPGHSTEDVKNAIGILIGGLEWNDNSIRASENIQRFAWGIRDENGGPPLPPKQKRYMARRVESEV
notes: also called Alb/76 ED; Alb/76 NS1 ED

Target: the molecule itself
Assay: SEC; gel filtration of the purified EDs; data not shown

| Protein | stoichiometry N |
| --- | --- |
| B1 | 2 |
| B2 | 2 |
